Assay results reported in US20230295259A1 (Protagonist Therapeutics, Inc., priority 2020, published 2023).
Each block holds one binder with its values, some of them ahead of it. Positions of bridges follow the written chain, without caps; N, C: chain ends. Non-standard residues stand in square brackets, D forms with d. Groups on a side chain read outwards from the residue. *: point of attachment. PEG12 = NCCOCCOCCOCCOCCOCCOCCOCCOCCOCCOCCOCCOCCC(=O)O; Dip = N[C@H](C(=O)O)C(c1ccccc1)c1ccccc1; Palmitoyl = CCCCCCCCCCCCCCCC(=O)*; β3hF = N[C@H](CC(=O)O)Cc1ccccc1; Isovaleryl = CC(C)CC(=O)*; Dap = NC[C@H](N)C(=O)O

Key:
Assay in all cases: cell-based or functional assay
[1] = target: T1, human ferroportin (SLC40A1) fused in frame with GFP, stably expressed in HEK293 cells (human, UniProt Q9NP59 1-571)
T1 sequence (looked up): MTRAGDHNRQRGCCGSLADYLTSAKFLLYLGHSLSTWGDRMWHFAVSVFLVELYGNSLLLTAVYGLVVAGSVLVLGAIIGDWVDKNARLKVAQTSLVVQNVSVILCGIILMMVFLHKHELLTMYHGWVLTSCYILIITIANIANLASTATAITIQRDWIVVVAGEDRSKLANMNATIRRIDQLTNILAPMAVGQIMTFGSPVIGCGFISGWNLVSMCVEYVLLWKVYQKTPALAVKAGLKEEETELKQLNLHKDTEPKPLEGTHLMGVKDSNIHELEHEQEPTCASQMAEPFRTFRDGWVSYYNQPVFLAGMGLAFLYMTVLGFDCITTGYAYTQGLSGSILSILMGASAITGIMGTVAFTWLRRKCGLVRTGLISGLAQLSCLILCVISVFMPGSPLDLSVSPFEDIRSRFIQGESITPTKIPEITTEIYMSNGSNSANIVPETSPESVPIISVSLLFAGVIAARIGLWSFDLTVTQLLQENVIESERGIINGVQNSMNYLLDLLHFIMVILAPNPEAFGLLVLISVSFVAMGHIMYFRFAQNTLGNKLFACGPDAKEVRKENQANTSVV

[2] = target: T1, human ferroportin (SLC40A1) fused in …; remark: listed apart in the source
[3] = target: T2, ferroportin endogenously expressed on T47D human breast carcinoma cells (human, UniProt Q9NP59 1-571)
T2 sequence (looked up): T1 sequence (looked up)

B1: Compound 295 (peptide)
peptide: Isovaleryl-ETH[Dip]PCIK([PEG12-Palmitoyl])[β3hF]K(PEG40KB)RC-NH2
modifications: disulfide 6-12 (inferred)
- FPN EC50 [1]: 1780 nM

B2: Compound 279 (peptide)
peptide: XXTHXPCIXXXC
modifications: Isovaleric Acid-[Glu_OMe]-T-H-[Dpa]-P-C-I-[Lys(1PEG2_1PEG2_Dap_C18_Diacid)]-[bhPhe]-[(D)Lys]-C-NH2
- FPN EC50 [1]: 11.4 nM

B4: Compound 279 (peptide)
peptide: XXTHXPCIXXXC
modifications: Isovaleric Acid-[Glu_OMe]-T-H-[Dpa]-P-C-I-[Lys(1PEG2_1PEG2_Dap_C18_Diacid)]-[bhPhe]-[(D)Lys]-C-NH2
- IC50: T47D Internalization MSA [3]: 15.4 nM

B7: Compound 202 (peptide)
peptide: XETXXPCIXXXC
modifications: Isovaleric Acid-E-T-[His_1Me]-[Dpa]-P-C-I-[Lys(PEG12_Palm)]-[bhPhe]-[(D)Lys]-C-NH2
- FPN EC50 [1]: 25.6 nM

B12: Compound 294 (peptide)
peptide: Isovaleryl-ETH[Dip]PCIK([PEG12-Palmitoyl])[β3hF]K(PEG30K)RC-NH2
modifications: disulfide 6-12 (inferred)
- IC50: T47D Internalization MSA [3]: 7.19 nM

Other lines, results leading:

- FPN IC50 (nM), grade: *=>500 nM [2]: > 500 nM
B3: Compound 603 (peptide)
peptide: Isovaleryl-ET[Dap][Dip]PCI[dK][β3hF]K([PEG12-Palmitoyl])RC-NH2
modifications: disulfide 6-12 (inferred)

- FPN EC50 [1]: 1080 nM
B5: Compound 296 (peptide)
peptide: Isovaleryl-ETH[Dip]PCIK(PEG40KB)[β3hF]K([PEG12-Palmitoyl])RC-NH2
modifications: disulfide 6-12 (inferred)

- FPN EC50 [1]: 32.6 nM
B6: Compound 312 (peptide)
peptide: XETHXPCIXXXC
modifications: Isovaleric Acid-E-T-H-[Dpa]-P-C-I-[Lys(Ahx_Palm)]-[bhPhe]-[(D)Lys(PEG20K)]-C-NH2

- IC50: T47D Internalization MSA [3]: 9.22 nM
B8: Compound 295 (peptide)
peptide: Isovaleryl-ETH[Dip]PCIK([PEG12-Palmitoyl])[β3hF]K(PEG40KB)RC-NH2
modifications: disulfide 6-12 (inferred)

- FPN EC50 [1]: 357 nM
B9: Compound 314 (peptide)
peptide: XETHXPCIXXXC
modifications: Isovaleric Acid-E-T-H-[Dpa]-P-C-I-[Lys(1PEG2_1PEG2_Ahx_Palm)]-[bhPhe]-[(D)Lys(PEG20K-C-NH2)

- IC50: T47D Internalization MSA [3]: 109 nM
B10: Compound 296 (peptide)
peptide: Isovaleryl-ETH[Dip]PCIK(PEG40KB)[β3hF]K([PEG12-Palmitoyl])RC-NH2
modifications: disulfide 6-12 (inferred)

- FPN EC50 [1]: 1360 nM
B11: Compound 297 (peptide)
peptide: XETHXPCIXXXC
modifications: Isovaleric Acid-E-T-H-[Dpa]-P-C-I-[Lys(1PEG2_1PEG2_Ahx_C18_Diacid)]-[bhPhe]-[(D)Lys(PEG40KB-C-NH2)
